Experimental data: PMC10856354 (International Journal of Molecular Sciences, 2024)
Values joined by “and” are separate entries in the source; they are usually repeats but may differ in a detail not shown here. Equal entries are not always repeated. Where a SMILES comes first, the peptide text is derived from it. Bridges are numbered along the chain shown (N, C = ends). [ ]: non-standard residue; d: D form. The star is where a group is joined. DOTA = O=C(O)CN1CCN(CC(=O)O)CCN(CC(=O)*)CCN(CC(=O)O)CC1

Assays:
[1] = mice, blood collected 5 min pi, radio-HPLC
Protocol: At 5 min pi blood (~1mL) was collected from the heart of mice in a prechilled insulin syringe and swiftly placed in an ice-cold polypropylene tube containing EDTA on ice. Blood samples were centrifuged at 2000× g at 4 °C for 10 min. […] The mixture was centrifuged for 10 min at 15,000× g at 4 °C. […] An RP18 Symmetry Shield cartridge column (5 μm, 3.9 mm × 20 mm, Waters, Vienna, Austria) was eluted at a 1 mL/min flow rate with the following gradient: 100%A/0%B to 60%A/40%B in 40 min, whereby A = 0.1% aqueous TFA and B = MeCN (system 3).

[2] = tested on: HEK293-hSST3R tumor-bearing SCID mice; assay: in vivo; conditions: HEK293-hSST3R mice, 4 h pi, block: co-injection of 80 nmol KE108; mean ± sd, n = 4
Protocol: (§1) For the second biodistribution experiments, male SCID mice of 7 weeks of age (15–20 g) on arrival day (NCSR ‘‘Demokritos’’ Animal House, Athens, Greece) were subcutaneously injected in their flanks with a suspension of HEK293-hSST3R cells (150 μL inocula of ~3 × 10^7 cells in PBS). The animals were kept under aseptic conditions for 3–4 weeks until well-palpable tumors were grown at the inoculation site. […] Mice were sacrificed at 4 h pi, and biodistribution analyses were conducted, as described above.

in vivo [3] = conditions: male, SCID, mouse, iv, total radioactivity
Protocol: as §1

[4] = tested on: AR4-2J tumor-bearing SCID mice (rSST2R-positive); assay: in vivo; conditions: AR4-2J mice, 4 h pi, block: co-injection of 100 nmol TATE; mean ± sd, n = 4
Protocol: (§2) For biodistribution experiments, male SCID mice of 7 weeks of age (15–20 g) on arrival day (NCSR ‘‘Demokritos’’ Animal House, Athens, Greece) were subcutaneously injected in their flanks with a suspension of AR4-2J cells (150 μL inocula of ~1 × 10^7 cells in PBS). The animals were kept under aseptic conditions for 12 days until well-palpable tumors were grown at the inoculation site. […] In an additional group, animals were co-injected with excess TATE (100 nmol) together with the radioligand (blocked animals) and were sacrificed at 4 h pi. Blood was immediately collected, and the organs of interest were excised and weighed. Sample radioactivity was measured in the γ-counter using proper standards of the injected activity. Data were calculated as %IA/g with the aid of standard solutions and represent mean values ± sd. For comparisons, a Two-way ANOVA with Tukey’s post hoc analysis was applied (PRISM^TM GraphPad—6 Software, San Diego, CA, USA). p values < 0.05 were considered statistically significant.

in vivo [5] = conditions: male, SCID, mouse, iv, total radioactivity; remark: listed apart in the source
Protocol: as §2

[6] = pancreas, 10 pmol total peptide
[7] = AR4-2J tumor, 10 pmol total peptide

**Q.** For `C[C@H](NC(=O)CN1CCN(CC(=O)O)CCN(CC(=O)O)CCN(CC(=O)O)CC1)C(=O)NCC(=O)N[C@H]1CSSC[C@@H](C(=O)O)NC(=O)[C@H](CO)NC(=O)[C@@H]2CSSC[C@H](NC(=O)[C@H](CCCCN)NC1=O)C(=O)N[C@@H](Cc1ccccc1)C(=O)N[C@@H](Cc1ccccc1)C(=O)N[C@H](Cc1c[nH]c3ccccc13)C(=O)N[C@@H](CCCCN)C(=O)N[C@@H]([C@@H](C)O)C(=O)N[C@@H](Cc1ccccc1)C(=O)N2` [[^111In]In-AT6S, metal not drawn] ({DOTA}-AGCKCFF[dW]KTFCSC-OH; disulfide 3-14, 5-12), which “% intact radioligand in peripheral blood” value [1] is on record?
**A.** > 98% and > 96%

**Q.** And the Tumor uptake [2]?
**A.** 0.3 ± 0.05 %IA/g

**Q.** And the tissue uptake at 4 h (in vivo [3]; HEK293-hSST3R tumor, 10 pmol total peptide)?
**A.** 3.7 ± 0.4 %ID/g

**Q.** What about the tissue uptake at 4 h (in vivo [3]; blood, 10 pmol total peptide) of the same molecule?
**A.** 0.3 ± 0.02 %ID/g

**Q.** What about the tissue uptake at 4 h (in vivo [3]; heart, 10 pmol total peptide) of the same molecule?
**A.** 0.5 ± 0.05 %ID/g

**Q.** What about the tissue uptake at 4 h (in vivo [3]; heart, with KE108 80 nmol co-injected (in vivo SST3R blockade)) of the same molecule?
**A.** 0.1 %ID/g

**Q.** And the tissue uptake at 4 h (in vivo [3]; kidneys, with KE108 80 nmol co-injected (in vivo SST3R blockade))?
**A.** 26.8 ± 5.4 %ID/g

**Q.** What about the tissue uptake at 4 h (in vivo [3]; liver, 10 pmol total peptide) of the same molecule?
**A.** 16.6 ± 1.5 %ID/g

**Q.** And the tissue uptake at 4 h (in vivo [3]; [6])?
**A.** 0.5 ± 0.04 %ID/g

**Q.** What about the tissue uptake at 4 h (in vivo [3]; stomach, 10 pmol total peptide) of the same molecule?
**A.** 0.8 ± 0.05 %ID/g

**Q.** And the tissue uptake at 4 h (in vivo [3]; stomach, with KE108 80 nmol co-injected (in vivo SST3R blockade))?
**A.** 0.1 ± 0.04 %ID/g

**Q.** What about the Tumor uptake [4] of the same molecule?
**A.** 0.8 ± 0.05 %IA/g

**Q.** And the tissue uptake at 4 h (in vivo [5]; [7])?
**A.** 1.9 ± 0.1 %ID/g

**Q.** What about the tissue uptake at 24 h (in vivo [5]; [7]) of the same molecule?
**A.** 0.8 ± 0.1 %ID/g

**Q.** And the tissue uptake at 4 h (in vivo [5]; blood, 10 pmol total peptide)?
**A.** 0.3 ± 0.01 %ID/g

**Q.** What about the tissue uptake at 24 h (in vivo [5]; blood, 10 pmol total peptide) of the same molecule?
**A.** 0.07 %ID/g

**Q.** What about the tissue uptake at 24 h (in vivo [5]; femur, 10 pmol total peptide) of the same molecule?
**A.** 0.6 ± 0.1 %ID/g

**Q.** And the tissue uptake at 4 h (in vivo [5]; heart, 10 pmol total peptide)?
**A.** 0.5 ± 0.05 %ID/g

**Q.** What about the tissue uptake at 24 h (in vivo [5]; heart, 10 pmol total peptide) of the same molecule?
**A.** 0.3 ± 0.06 %ID/g

**Q.** What about the tissue uptake at 4 h (in vivo [5]; heart, with TATE 100 nmol co-injected (in vivo SST2R blockade)) of the same molecule?
**A.** 0.7 ± 0.1 %ID/g

**Q.** What about the tissue uptake at 24 h (in vivo [5]; intestines, 10 pmol total peptide) of the same molecule?
**A.** 0.6 ± 0.08 %ID/g

**Q.** What about the tissue uptake at 24 h (in vivo [5]; kidneys, 10 pmol total peptide) of the same molecule?
**A.** 34.1 ± 3.9 %ID/g

**Q.** What about the tissue uptake at 4 h (in vivo [5]; kidneys, with TATE 100 nmol co-injected (in vivo SST2R blockade)) of the same molecule?
**A.** 49.5 ± 10.5 %ID/g

**Q.** What about the tissue uptake at 4 h (in vivo [5]; liver, 10 pmol total peptide) of the same molecule?
**A.** 16.6 ± 1.5 %ID/g

**Q.** And the tissue uptake at 24 h (in vivo [5]; liver, 10 pmol total peptide)?
**A.** 12.1 ± 2.4 %ID/g

**Q.** And the tissue uptake at 24 h (in vivo [5]; muscle, 10 pmol total peptide)?
**A.** 0.1 ± 0.03 %ID/g

**Q.** What about the tissue uptake at 4 h (in vivo [5]; [6]) of the same molecule?
**A.** 0.5 ± 0.1 %ID/g

**Q.** What about the tissue uptake at 24 h (in vivo [5]; [6]) of the same molecule?
**A.** 0.4 ± 0.07 %ID/g

**Q.** And the tissue uptake at 24 h (in vivo [5]; spleen, 10 pmol total peptide)?
**A.** 6 ± 1.1 %ID/g

**Q.** What about the tissue uptake at 4 h (in vivo [5]; stomach, 10 pmol total peptide) of the same molecule?
**A.** 0.8 ± 0.04 %ID/g

**Q.** And the tissue uptake at 24 h (in vivo [5]; stomach, 10 pmol total peptide)?
**A.** 0.3 ± 0.03 %ID/g

**Q.** And the tissue uptake at 4 h (in vivo [5]; stomach, with TATE 100 nmol co-injected (in vivo SST2R blockade))?
**A.** 0.5 ± 0.2 %ID/g
